Laboratory results taken from publication PMC3423576 (Journal of molecular biology, 2012).

Target: the molecule itself
Assay: crystal structure

B1: CusB periplasmic membrane fusion protein (natural protein, E. coli, UniProt P77239 29-407, looked up)
chain: EPPAEKTSTAERKILFWYDPMYPNTRFDKPGKSPFMDMDLVPKYADEESSASGVRIDPTQTQNLGVKTATVTRGPLTFAQSFPANVSYNEYQYAIVQARAAGFIDKVYPLTVGDKVQKGTPLLDLTIPDWVEAQSEYLLLRETGGTATQTEGILERLRLAGMPEADIRRLIATQKIQTRFTLKAPIDGVITAFDLRAGMNIAKDNVVAKIQGMDPVWVTAAIPESIAWLVKDASQFTLTVPARPDKTLTIRKWTLLPGVDAATRTLQLRLEVDNADEALKPGMNAWLQLNTASEPMLLIPSQALIDTGSEQRVITVDADGRFVPKRVAVFQASQGVTALRSGLAEGEKVVSSGLFLIDSEANISGALERMRSESATHAH
**Q.** With B1 as the protein, how does the “stoichiometry N” value read?
**A.** The value was 6.
